{
  "source": "paper PMC9472474",
  "binders": {"B1": {"name": "FAM m6A ssRNA (ssRNA)", "RNA": "UUCUUCUGUGGACUGUG", "modifications": "m6A at A12"}},
  "target": "T1, GST-RBM45 (6xHis-GST) (human, UniProt Q8IUH3 1-476)",
  "T1 sequence": "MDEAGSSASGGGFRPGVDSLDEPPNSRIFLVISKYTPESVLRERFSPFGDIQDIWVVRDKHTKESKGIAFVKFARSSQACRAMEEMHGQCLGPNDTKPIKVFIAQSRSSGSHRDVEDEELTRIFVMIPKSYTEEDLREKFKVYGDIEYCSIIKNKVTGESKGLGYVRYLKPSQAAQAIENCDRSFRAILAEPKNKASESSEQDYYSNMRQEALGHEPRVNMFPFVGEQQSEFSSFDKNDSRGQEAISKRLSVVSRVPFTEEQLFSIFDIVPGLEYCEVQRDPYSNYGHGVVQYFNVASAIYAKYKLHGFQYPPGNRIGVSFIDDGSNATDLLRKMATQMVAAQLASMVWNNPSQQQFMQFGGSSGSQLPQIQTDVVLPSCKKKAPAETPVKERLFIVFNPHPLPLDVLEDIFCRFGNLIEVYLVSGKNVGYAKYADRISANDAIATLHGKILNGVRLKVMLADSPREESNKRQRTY",
  "test": "fluorescence polarization",
  "data": [
    {"binder": "B1", "values": [
      {"measurement": "Kd", "value": "462 ± 73", "unit": "nM"}
    ]}
  ]
}
